Laboratory results: article PMC8202348 (2021)
Values belong to the molecule of their own block, whether it stands above or below them.

Columns and labels:
[1] = target: GL3^552–637, N6His- and GST-tagged recombinant protein (Arabidopsis) (UniProt Q9FN69); test: AlphaScreen or HTRF; ALPHA competition binding, apparent Kd; 100 nM N6His-tagged and 100 nM GST-tagged copies with untagged competitor (R^ACT 0–8 μM, GL3^ACT 0–10 μM); room temperature 2 h; one-site fit
biological repeat 2 = target: the molecule itself; test: biological repeat 2
[2] = target: R^525–610, N6His- and GST-tagged recombinant protein (maize); test: AlphaScreen or HTRF; ALPHA saturation binding, apparent Kd; N6His-tagged and GST-tagged copies, one at 100 nM (R^ACT) or 500 nM (GL3^ACT), the other 0–4 μM (R^ACT) or 0–5 μM (GL3^ACT); Nickel Chelate donor and anti-GST acceptor beads; room temperature 2 h; one-site fit
biological repeat 1 = target: the molecule itself; test: biological repeat 1
[3] = target: T1, R^525–610 A573S, N6His- and GST-tagged recombinant protein (maize); test: biological repeat 1
T1 chain: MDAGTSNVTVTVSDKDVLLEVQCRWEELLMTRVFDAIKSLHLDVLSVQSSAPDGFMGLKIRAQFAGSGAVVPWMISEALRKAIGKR

[4] = target: T2, R^525–610 L569H, N6His- and GST-tagged recombinant protein (maize); test: biological repeat 1
T2 chain: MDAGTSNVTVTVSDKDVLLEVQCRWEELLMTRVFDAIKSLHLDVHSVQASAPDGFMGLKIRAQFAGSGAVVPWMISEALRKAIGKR

[5] = target: T1, R^525–610 A573S, N6His- and GST-tagged …; test: biological repeat 2
[6] = target: T2, R^525–610 L569H, N6His- and GST-tagged …; test: biological repeat 2
[7] = target: R^525–610 V568S, N6His- and GST-tagged recombinant protein (maize); test: AlphaScreen or HTRF; ALPHA saturation binding, apparent Kd; N6His-tagged and GST-tagged copies, one at 100 nM (R^ACT) or 500 nM (GL3^ACT), the other 0–4 μM (R^ACT) or 0–5 μM (GL3^ACT); Nickel Chelate donor and anti-GST acceptor beads; room temperature 2 h; one-site fit

- Kd [1]: 1280 nM
Molecule: untagged GL3^552–637 (from UniProt Q9FN69 552-637) (domain or fragment)

- Kd [2]: 100 nM
B1: R^525–610, N6His- and GST-tagged recombinant protein (domain or fragment)
chain: MDAGTSNVTVTVSDKDVLLEVQCRWEELLMTRVFDAIKSLHLDVLSVQASAPDGFMGLKIRAQFAGSGAVVPWMISEALRKAIGKR
- Kd (biological repeat 2): 90 nM

- Kd [3]: 290 nM
- Kd [4]: 340 nM
- Kd [5]: 250 nM
- Kd [6]: 310 nM
- Kd [7]: 1720 nM
B2: R^525–610 V568S, N6His- and GST-tagged recombinant protein (domain or fragment)
chain: MDAGTSNVTVTVSDKDVLLEVQCRWEELLMTRVFDAIKSLHLDSLSVQASAPDGFMGLKIRAQFAGSGAVVPWMISEALRKAIGKR
- Kd (biological repeat 1): 1850 nM
